Measurements taken from patent US20060019314A1.

How the values were obtained:
FOXO3a (human) = FOXO3a (human) (UniProt O43524); assay: cell-based or functional assay
FOXO3a-TM (human) = FOXO3a-TM (human) (UniProt O43524); assay: cell-based or functional assay

human Smek1 (from UniProt Q6IN85 1-833)
synthetic FOXO luciferase reporter (three tandem IRS elements), HepG2 cells (percent increase) (FOXO3a (human)): 50 | synthetic FOXO luciferase reporter (three tandem IRS elements), 293 cells (FOXO3a-TM (human)): 12 fold | synthetic FOXO luciferase reporter (three tandem IRS elements), HepG2 cells (FOXO3a-TM (human)): 2 fold
